In paper PMC10528910:

Molecular target: syntrophin PDZ domain (UniProt Q61234)

Substance “VKESLV ligand (syntrophin PDZ ligand) (peptide)” has a Kd of 1970 nM.
